Experimental data published in publication PMC12797002, “Hydrophobic residues in the α‐synuclein NAC domain drive seed‐competent fibril formation and are targeted by peptide inhibitors” (The Febs Journal, 2025).

Key:
[1] = biological target: the molecule itself; experiment: ANS fluorescence aggregation kinetics; 100 μM NAC peptide, 40 μM ANS, 1× PBS at acidic (pH 4.2 in the methods, 4.5 in the legend), neutral (7.2) or basic (8.0) pH, 37 °C, 1000 rpm
[2] = biological target: the molecule itself; experiment: co-sedimentation; 100 μM NAC peptide incubated 48 h without ThT, centrifuged at 65 000 g for 1 h; UV–Vis spectra (400–600 nm) of soluble and insoluble fractions

Protein	binding result [1]	binding result [2]
GAVVTGVTAVA (peptide, UniProt P37840 68-78, looked up, alpha-synuclein, residues 68-78 (NAC residues 8-18); also called NACore; αSyn 68–78; source: synthetic peptide (GenScript Biotech, purity ≥ 95%)) [NAC11]	binds	
VTNVGGAVVTGVTAVA (peptide, UniProt P37840 63-78, looked up, alpha-synuclein, residues 63-78 (NAC residues 3-18); also called αSyn 63–78; source: synthetic peptide (GenScript Biotech, purity ≥ 95%)) [NAC16]		binds
